Test results: the supplement of paper PMC9112550, “Optimization of the antimicrobial peptide Bac7 by deep mutational scanning” (BMC Biology, 2022)

Tested on: Escherichia coli TOP10
Assay: shrunken log2 fold change of peptide-encoding DNA abundance (4.5 h post-induction vs induction); higher = less antimicrobial activity (less host growth inhibition)
Details: time post-induction: 4.5 h; library: site-saturation at positions 5, 18, 19, 20
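Note: peptides expressed intracellularly from a pBAD plasmid library in pooled LB shake-flask culture, induced with 0.3% L-arabinose, DNA abundance read by NGS, three biological replicates, DESeq2 with apeglm shrinkage.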

Sequence | shrunken log2 fold change
RRIRKRPPRLPRPRPRPTPGPRP | 0.683
RRIRKRPPRLPRPRPRPTPLPRP | 0.848
RRIRKRPPRLPRPRPRPTQIPRP | 0.412
RRIRKRPPRLPRPRPRPTSFPRP | -0.044
RRIRKRPPRLPRPRPRPTSNPRP | 0.161
RRIRKRPPRLPRPRPRPTVHPRP | 0.467
RRIRKRPPRLPRPRPRPTVTPRP | 0.229
RRIRKRPPRLPRPRPRPTWHPRP | 0.371
RRIRKRPPRLPRPRPRPTWVPRP | -0.105
RRIRKRPPRLPRPRPRPTYGPRP | 0.043
RRIRKRPPRLPRPRPRPTYNPRP | -0.0201
RRIRKRPPRLPRPRPRPTYPPRP | -0.00526
RRIRKRPPRLPRPRPRPVALPRP | -0.0167
RRIRKRPPRLPRPRPRPVDCPRP | -0.248
RRIRKRPPRLPRPRPRPVDIPRP | -0.0337
RRIRKRPPRLPRPRPRPVDQPRP | 0.766
RRIRKRPPRLPRPRPRPVFDPRP | 0.171
RRIRKRPPRLPRPRPRPVFSPRP | 0.111
RRIRKRPPRLPRPRPRPVHGPRP | 0.0412
RRIRKRPPRLPRPRPRPVHPPRP | 0.189
RRIRKRPPRLPRPRPRPVHTPRP | 0.00666
RRIRKRPPRLPRPRPRPVIMPRP | 0.137
RRIRKRPPRLPRPRPRPVKMPRP | 0.0491
RRIRKRPPRLPRPRPRPVKRPRP | 0.0121
RRIRKRPPRLPRPRPRPVLCPRP | 0.241

Sequence | shrunken log2 fold change
RRIRKRPPRLPRPRPRPVMEPRP | 0.581
RRIRKRPPRLPRPRPRPVMQPRP | 0.041
RRIRKRPPRLPRPRPRPVMWPRP | -0.221
RRIRKRPPRLPRPRPRPVNFPRP | -0.0174
RRIRKRPPRLPRPRPRPVNTPRP | -0.207
RRIRKRPPRLPRPRPRPVPQPRP | 0.313
RRIRKRPPRLPRPRPRPVQEPRP | 0.0683
RRIRKRPPRLPRPRPRPVQVPRP | -0.0596
RRIRKRPPRLPRPRPRPVSKPRP | 0.128
RRIRKRPPRLPRPRPRPVSWPRP | 0.821
RRIRKRPPRLPRPRPRPVSYPRP | -0.227
RRIRKRPPRLPRPRPRPVTMPRP | -0.0185
RRIRKRPPRLPRPRPRPVVGPRP | 0.686
RRIRKRPPRLPRPRPRPVWYPRP | 0.0528
RRIRKRPPRLPRPRPRPVYDPRP | 0.0473
RRIRKRPPRLPRPRPRPVYFPRP | -0.181
RRIRKRPPRLPRPRPRPVYRPRP | -0.667
RRIRKRPPRLPRPRPRPWAAPRP | 0.473
RRIRKRPPRLPRPRPRPWATPRP | 0.546
RRIRKRPPRLPRPRPRPWCSPRP | -0.155
RRIRKRPPRLPRPRPRPWDHPRP | -0.0434
RRIRKRPPRLPRPRPRPWFVPRP | -0.036
RRIRKRPPRLPRPRPRPWFWPRP | 0.442
RRIRKRPPRLPRPRPRPWGTPRP | 0.341
RRIRKRPPRLPRPRPRPWLIPRP | 0.109

Sequence | shrunken log2 fold change
RRIRKRPPRLPRPRPRPWMIPRP | 0.0508
RRIRKRPPRLPRPRPRPWMQPRP | -0.0134
RRIRKRPPRLPRPRPRPWQCPRP | -0.00136
RRIRKRPPRLPRPRPRPWRKPRP | 0.0487
RRIRKRPPRLPRPRPRPWRSPRP | -0.0167
RRIRKRPPRLPRPRPRPWRWPRP | 0.595
RRIRKRPPRLPRPRPRPWTDPRP | -0.00992
RRIRKRPPRLPRPRPRPWVFPRP | 0.0817
RRIRKRPPRLPRPRPRPWVGPRP | 0.0422
RRIRKRPPRLPRPRPRPWWYPRP | -0.127
RRIRKRPPRLPRPRPRPYACPRP | -0.0471
RRIRKRPPRLPRPRPRPYARPRP | -0.0148
RRIRKRPPRLPRPRPRPYASPRP | 0.0496
RRIRKRPPRLPRPRPRPYCPPRP | 0.0231
RRIRKRPPRLPRPRPRPYDNPRP | 0.0185
RRIRKRPPRLPRPRPRPYDRPRP | 0.192
RRIRKRPPRLPRPRPRPYEPPRP | -0.243
RRIRKRPPRLPRPRPRPYEQPRP | -0.0536
RRIRKRPPRLPRPRPRPYGSPRP | -0.224
RRIRKRPPRLPRPRPRPYHMPRP | -0.0573
RRIRKRPPRLPRPRPRPYHSPRP | 2.07
RRIRKRPPRLPRPRPRPYHTPRP | -0.673
RRIRKRPPRLPRPRPRPYIDPRP | -0.194
RRIRKRPPRLPRPRPRPYIQPRP | -0.319
RRIRKRPPRLPRPRPRPYKNPRP | -0.176
